Measured values published in patent US20250262210A1 (TRUSTEES OF COLUMBIA UNIVERSITY IN THE CITY OF NEW YORK, published 2025).

How the values were obtained:
[1] = biological target: T1, STK11IP (human, UniProt Q8N1F8 1-1088); experiment: IP/MS, LZTR1 R810W-FLAG, U87
T1 sequence (looked up): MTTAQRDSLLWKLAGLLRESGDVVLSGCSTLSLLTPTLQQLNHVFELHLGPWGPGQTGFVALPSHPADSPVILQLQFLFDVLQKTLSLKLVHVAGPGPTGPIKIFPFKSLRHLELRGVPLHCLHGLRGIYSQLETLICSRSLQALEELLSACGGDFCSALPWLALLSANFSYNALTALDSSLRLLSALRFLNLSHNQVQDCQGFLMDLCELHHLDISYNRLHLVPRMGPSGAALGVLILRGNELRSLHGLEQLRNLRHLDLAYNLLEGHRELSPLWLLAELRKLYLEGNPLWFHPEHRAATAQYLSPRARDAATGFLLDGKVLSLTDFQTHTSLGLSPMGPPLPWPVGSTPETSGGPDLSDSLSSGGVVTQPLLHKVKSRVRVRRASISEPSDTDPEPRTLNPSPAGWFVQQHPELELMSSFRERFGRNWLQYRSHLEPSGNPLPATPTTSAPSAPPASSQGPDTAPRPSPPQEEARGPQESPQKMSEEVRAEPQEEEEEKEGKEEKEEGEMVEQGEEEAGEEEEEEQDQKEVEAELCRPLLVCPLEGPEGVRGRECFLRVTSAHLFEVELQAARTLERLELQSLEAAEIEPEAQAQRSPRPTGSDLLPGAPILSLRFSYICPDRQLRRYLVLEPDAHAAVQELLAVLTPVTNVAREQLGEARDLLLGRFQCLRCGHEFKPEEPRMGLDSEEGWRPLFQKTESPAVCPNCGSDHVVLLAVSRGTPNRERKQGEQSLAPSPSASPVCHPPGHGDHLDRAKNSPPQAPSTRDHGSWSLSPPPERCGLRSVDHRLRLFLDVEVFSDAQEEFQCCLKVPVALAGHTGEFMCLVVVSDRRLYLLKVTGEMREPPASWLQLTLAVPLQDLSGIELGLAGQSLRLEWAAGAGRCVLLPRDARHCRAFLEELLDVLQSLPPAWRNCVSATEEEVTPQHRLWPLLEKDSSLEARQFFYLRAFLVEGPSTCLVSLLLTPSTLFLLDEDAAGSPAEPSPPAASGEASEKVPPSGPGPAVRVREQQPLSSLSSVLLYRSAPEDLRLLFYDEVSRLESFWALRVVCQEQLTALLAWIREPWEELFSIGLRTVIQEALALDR
Summary of the method: (§1)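 Read-out: spectral counts from LC-MS/MS (Orbitrap Fusion) after MaxQuant identification. Variable modifications were Met oxidation, protein N-terminal acetylation and N/Q deamidation.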

[2] = biological target: T2, PPFIBP1 (human, UniProt Q86W92 1-1011, limits assumed); experiment: IP/MS, LZTR1 R810W-FLAG, U87
T2 sequence (looked up): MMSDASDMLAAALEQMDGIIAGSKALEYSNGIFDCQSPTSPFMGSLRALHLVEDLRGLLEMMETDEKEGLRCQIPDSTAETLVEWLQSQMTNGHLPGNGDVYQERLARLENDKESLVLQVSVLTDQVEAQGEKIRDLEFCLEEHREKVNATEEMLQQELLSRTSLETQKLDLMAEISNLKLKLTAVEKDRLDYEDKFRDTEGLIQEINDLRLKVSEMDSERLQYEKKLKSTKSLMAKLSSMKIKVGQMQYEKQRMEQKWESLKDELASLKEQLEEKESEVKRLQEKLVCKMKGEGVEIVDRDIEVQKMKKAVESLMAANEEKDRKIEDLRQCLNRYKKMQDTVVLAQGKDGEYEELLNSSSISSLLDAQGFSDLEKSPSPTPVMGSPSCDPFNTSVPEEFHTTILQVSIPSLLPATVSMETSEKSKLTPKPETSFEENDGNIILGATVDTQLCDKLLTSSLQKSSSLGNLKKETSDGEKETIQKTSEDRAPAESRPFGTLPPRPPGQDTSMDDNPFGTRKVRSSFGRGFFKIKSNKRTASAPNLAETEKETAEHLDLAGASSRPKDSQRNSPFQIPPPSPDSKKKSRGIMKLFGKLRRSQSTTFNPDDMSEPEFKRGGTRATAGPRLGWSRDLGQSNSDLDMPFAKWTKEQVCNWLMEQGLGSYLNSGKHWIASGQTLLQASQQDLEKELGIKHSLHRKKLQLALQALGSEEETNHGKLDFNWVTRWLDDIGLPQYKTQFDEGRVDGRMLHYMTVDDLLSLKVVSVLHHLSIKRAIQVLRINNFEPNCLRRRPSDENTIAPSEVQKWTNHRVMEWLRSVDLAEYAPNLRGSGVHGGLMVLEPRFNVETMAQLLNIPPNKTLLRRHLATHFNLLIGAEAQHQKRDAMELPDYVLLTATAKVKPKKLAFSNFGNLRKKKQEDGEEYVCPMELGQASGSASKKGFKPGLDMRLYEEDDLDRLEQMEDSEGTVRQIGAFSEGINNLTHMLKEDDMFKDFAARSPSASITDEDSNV
Summary of the method: as §1

B1: LZTR1 R810W-FLAG (other, human, UniProt Q8N653 1-840, looked up)
chain: MAGPGSTGGQIGAAALAGGARSKVAPSVDFDHSCSDSVEYLTLNFGPFETVHRWRRLPPCDEFVGARRSKHTVVAYKDAIYVFGGDNGKTMLNDLLRFDVKDCSWCRAFTTGTPPAPRYHHSAVVYGSSMFVFGGYTGDIYSNSNLKNKNDLFEYKFATGQWTEWKIEGRLPVARSAHGATVYSDKLWIFAGYDGNARLNDMWTIGLQDRELTCWEEVAQSGEIPPSCCNFPVAVCRDKMFVFSGQSGAKITNNLFQFEFKDKTWTRIPTEHLLRGSPPPPQRRYGHTMVAFDRHLYVFGGAADNTLPNELHCYDVDFQTWEVVQPSSDSEVGGAEVPERACASEEVPTLTYEERVGFKKSRDVFGLDFGTTSAKQPTQPASELPSGRLFHAAAVISDAMYIFGGTVDNNIRSGEMYRFQFSCYPKCTLHEDYGRLWESRQFCDVEFVLGEKEECVQGHVAIVTARSRWLRRKITQARERLAQKLEQEAAPVPREAPGVAAGGARPPLLHVAIREAEARPFEVLMQFLYTDKIKYPRKGHVEDVLLIMDVYKLALSFQLCRLEQLCRQYIEASVDLQNVLVVCESAARLQLSQLKEHCLNFVVKESHFNQVIMMKEFERLSSPLIVEIVRRKQQPPPRTPLDQPVDIGTSLIQDMKAYLEGAGAEFCDITLLLDGHPRPAHKAILAARSSYFEAMFRSFMPEDGQVNISIGEMVPSRQAFESMLRYIYYGEVNMPPEDSLYLFAAPYYYGFYNNRLQAYCKQNLEMNVTVQNVLQILEAADKTQALDMKRHCLHIIVHQFTKVSKLPTLWSLSQQLLLDIIDSLASHISDKQCAELGADI
notes: Stably expressed in U87 cells by lentivirus; also called LZTR1-FLAG-R810W; LZTR1 RW; not shown: FLAG tag
B1: binds [1]; binds [2].
